In paper PMC9588798:

Biological target: Human IgM heavy (μ) chain of the full-length IgM pentamer from myeloma (human) (UniProt P01871)
Experiment: cryo-EM structure; full-length human IgM pentamer without secretory component, 0.25 mg/ml, in PBS; single-particle cryo-EM, 3D variability analysis and focused refinement on subunit 1; models PDB 6KXS, 4JVU and 2AGJ rigidly docked

Q: “Human IgM heavy (μ) chain of the full-length IgM pentamer from myeloma (from UniProt P01871 106-433) (natural protein)” was tested. Which stoichiometry N did it give?
A: 10
